B1: EHEE_rd2_1257 (parent)
chain: EEERTFTNEEEARKAKKEAEKRGLRVTVTKDGTTWRVRIG

Variants of: B1
Assay: folding stability dG (cDNA display proteolysis); higher = more stable
Details: PBS, room temperature

Folding stability dG [kcal/mol] of substitutions, site by site:
K17: W 2.39; A 2.47; E 2.7; M 2.48; H 2.24; F 2.36; Q 2.36; V 2.27; S 2.19; L 2.45; I 2.5; N 2.15; Y 2.44; R 2.3; D 2.44; T 2.11; G 1.78
E10: L 2.11; C 2.31; M 2.02; H 1.96; G 1.81; Y 2.21; V 1.86; T 1.81; S 1.89; R 2.23; A 2.16; Q 2.03; P 1.38; N 1.86; D 2.01; K 2.07; I 1.98; F 2.01; W 2.57
T5: M 1.94; D 1.13; A 1.49; Y 2.17; I 2.56; P 0.253; V 2.47; K 1.17; L 2.11; S 1.69; E 1.65; N 1.29; H 1.68; F 2.19; W 2.45; R 1.52; G 0.704; Q 1.6
E9: T 0.236; I 1.96; Y 2.73; A 1.76; D 0.502; K 1.58; L 2.01; F 2.37; Q 1.58; N 0.702; H 1.45; W 2.9; R 1.77; G 1.42; P 1.47; M 1.55; S 1.35; V 1.72
E3: P 0.936; K 0.758; T 1.99; Y 2.08; G 1.28; F 2; H 1.42; V 2.33; M 1.88; I 2.48; D 1.67; S 1.66; L 2; R 0.931; A 1.34; N 1.37; Q 1.44; W 2.3
A12: V 1.51; L 0.876; S 0.218; Y 1.34; M 2.08; F 1.54; T 0.316; C 2; I -0.149; W 0.906
E1: P 2.07; V 2.57; T 2.19; Q 1.94; H 2.05; W 3.19; F 2.99; R 1.83; I 2.74; K 1.7; M 2.38; D 2.1; N 1.87; A 2.21; S 2.02; L 2.33; G 2.25; Y 3.06
R13: W 2.73; G 1.37; E 2.22; S 1.82; V 2.26; A 1.93; L 2.96; Q 2.32; N 2.35; H 2.19; F 2.73; I 2.74; K 2.05; M 3.15; D 1.98; T 2.12; Y 2.92
N8: E 1.35; S 2.31; L 1.52; Q 1.12; G 0.865; I 1.39; A 1.07; R 1.49; T 2.35; K 1.5; V 1.43; F 1.09; M 1.18; H 1.34; Y 0.987; W 0.726; D 1.76
E2: I 2.5; Y 2.85; L 2.26; D 1.75; F 2.6; W 2.86; M 2.16; P 1.43; S 2.06; G 1.66; T 2.18; R 1.97; H 2.12; K 1.73; N 1.81; V 2.3; Q 1.99; A 1.75
A15: L 2.02; D 0.155; G -0.185; F 3.5; R 0.547; I 1.43; S 0.987; K 0.42; V 1.72; Q 0.698; Y 3.31; H 1.67; W 3.04; N 0.555; M 1.87; E 1.11; T 1.19
E11: K 0.826; L 1.31; C 1.56; H 1.32; A 1.8; P -0.587; T 0.995; W 1.07; V 0.538; N 1.18; I 0.287; M 1.55; F 0.906; Q 1.58; S 1.46; D 2.28; Y 0.886; G 1.34; R 0.608
F6: V 0.21; M 0.184; W 0.194; Y 2.19; L 0.227; T -0.137
R4: P 0.462; I 2.38; H 2.17; W 3.03; M 2.53; T 1.61; N 1.14; S 1.46; K 1.97; V 1.96; Q 2; Y 2.93; A 1.59; D 0.771; L 2.8; E 1.37; F 2.97; G 1.14
E18: V 1.3; A 1.84; T 1.33; W 2.24; M 1.72; G 0.934; K 1.11; D 1.91; H 1.43; Y 1.59; Q 1.64; S 1.4; N 1.48; F 1.56; R 1.22; L 1.64; I 1.48
E20: C 1.45; D 0.837; Q 1.67; T 1.11; L 1.69; H 0.935; A 1.2; I 1.63; F 1.02; N 0.952; W 1.27; S 0.861; V 1.39; M 1.66; G 0.5; K 1.14; R 1.11
T7: E 1.94; I 1.56; A 1.87; D 2.25; Q 1.83; H 1.86; R 1.58; K 1.63; N 1.98; L 1.79; P 1.69; M 1.89; G 1.68; C 1.95; V 1.7; Y 2.06; F 2; W 1.77; S 1.91
K14: T 1.93; N 2.11; M 2.15; V 1.83; S 1.89; R 2.17; Q 2.18; H 2.01; I 2; G 1.49; A 2.31; E 2.19; L 2.1; D 1.86; F 1.94; Y 2.02; W 1.94
K16: I 2.99; F 2.35; H 1.53; T 1.89; S 1.99; C 2.25; V 3; R 1.75; N -0.159; G 2.33; M 2.66; E 2.31; Q 2.91; W 2.37; L 1.95; Y 2.2; A 3.56
A19: C 2.03; K 0.052; W 2.02; Q 0.398; N 0.597; E 0.159; H 1.06; L 2.46; T 0.176; S 0.779; V 0.703; G 1.06; F 2.11; Y 2.37; M 2.11; D -0.295; I 1.53

From the MegaScale stability set (Tsuboyama et al. 2023)
